Source: PMC5979607, “Crystal Structure of the Isocitrate Dehydrogenase 2 from Acinetobacter baumannii (AbIDH2) Reveals a Novel Dimeric Structure with Two Monomeric-IDH-Like Subunits” (International Journal of Molecular Sciences, 2018)

Columns and labels:
[1] = target: Isocitrate dehydrogenase 2 from Acinetobacter baumannii (AbIDH2) (Acinetobacter baumannii); assay: SEC; analytical gel filtration, Superdex 200 10/300 column, 50 mM NaH2PO4 pH 7.5, 300 mM NaCl, flow rate 0.5 mL/min; mass from a calibration curve
[2] = target: Isocitrate dehydrogenase 2 from Acinetobacter baumannii (AbIDH2) (Acinetobacter baumannii); assay: AUC; sedimentation velocity, Beckman XL-A, An-60 Ti rotor, 20 °C, 45,000 g, continuous c(s) distribution
[3] = system: NC(=O)c1ccc[n+]([C@@H]2O[C@H](COP(=O)(O)OP(=O)(O)OC[C@H]3O[C@@H](n4cnc5c(N)ncnc54)[C@H](OP(=O)(O)O)[C@@H]3O)[C@@H](O)[C@H]2O)c1; assay: purified protein; conditions: Mn2+ (2 mM MnCl2), 1.0 mM isocitrate, 35 mM Tris-HCl pH 7.5, 25 °C, varied: cofactor
[4] = system: O=C(O)CC(C(=O)O)C(O)C(=O)O; assay: purified protein; conditions: Mn2+ (2 mM MnCl2), NADP+ co-substrate, 35 mM Tris-HCl pH 7.5, 25 °C, DL-isocitrate in the assay

Row | stoichiometry N [1] | stoichiometry N [2] | Substance | Km [3] | kcat [3] | kcat/Km [3] | Km [4] | kcat [4]
1 | 2 | 2 | Isocitrate dehydrogenase 2 from Acinetobacter baumannii (AbIDH2) (enzyme) | – | – | – | – | –
2 | – | – | AbIDH2 (Acinetobacter baumannii ATCC 19606 = CIP 70.34 = JCM 6841) | 94 ± 6 µM | 36.9 ± 1.2 s⁻¹ | 390000 M⁻¹ s⁻¹ | 20.6 ± 3.1 µM | 39.2 ± 2.1 s⁻¹
